Test results taken from US20040116342A1 (INSTITUT PASTEUR, published 2004).
Where no end group is shown, it is not given here.

Columns and labels:
[1] = biological target: T1, SMR1-QHNPR (SMR1-Pentapeptide)
T1 chain: QHNPR

[2] = biological target: T2, modified tritiated Substance P: [(3,4 3H) Pro2-Sar9-Met(O2)11]-Substance P, P20366
T2 chain: RPKPQQFFGLM

[3] = biological target: T3, rat Neutral EndoPeptidase 24-11 (NEP), membrane-bound, in rat tissue membrane preparations and fresh tissue … (rat, UniProt P07861 2-750); assay: cell-based or functional assay
T3 sequence (looked up): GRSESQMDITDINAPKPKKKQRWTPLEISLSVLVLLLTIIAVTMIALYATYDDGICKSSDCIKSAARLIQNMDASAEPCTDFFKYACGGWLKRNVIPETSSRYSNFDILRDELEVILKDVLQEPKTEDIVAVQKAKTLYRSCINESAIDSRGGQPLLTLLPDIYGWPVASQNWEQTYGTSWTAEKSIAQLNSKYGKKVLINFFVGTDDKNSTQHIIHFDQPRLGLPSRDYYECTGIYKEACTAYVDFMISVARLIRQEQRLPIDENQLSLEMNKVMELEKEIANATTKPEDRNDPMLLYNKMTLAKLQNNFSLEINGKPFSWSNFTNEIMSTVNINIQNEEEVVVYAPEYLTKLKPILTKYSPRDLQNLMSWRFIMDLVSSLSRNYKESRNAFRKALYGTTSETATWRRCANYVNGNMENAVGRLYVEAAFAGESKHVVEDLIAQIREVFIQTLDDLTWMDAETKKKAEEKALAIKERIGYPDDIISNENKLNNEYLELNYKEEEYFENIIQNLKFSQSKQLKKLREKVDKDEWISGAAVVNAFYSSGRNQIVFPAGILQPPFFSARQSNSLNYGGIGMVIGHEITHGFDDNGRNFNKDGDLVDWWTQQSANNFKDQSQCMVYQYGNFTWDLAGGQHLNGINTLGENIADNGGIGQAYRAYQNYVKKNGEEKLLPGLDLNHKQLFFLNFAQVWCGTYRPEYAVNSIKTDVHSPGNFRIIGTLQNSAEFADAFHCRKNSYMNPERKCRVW

[4] = biological target: T4, purified rabbit renal NEP (rabbit, UniProt P08049 2-750, limits assumed); assay: cell-based or functional assay
T4 sequence (looked up): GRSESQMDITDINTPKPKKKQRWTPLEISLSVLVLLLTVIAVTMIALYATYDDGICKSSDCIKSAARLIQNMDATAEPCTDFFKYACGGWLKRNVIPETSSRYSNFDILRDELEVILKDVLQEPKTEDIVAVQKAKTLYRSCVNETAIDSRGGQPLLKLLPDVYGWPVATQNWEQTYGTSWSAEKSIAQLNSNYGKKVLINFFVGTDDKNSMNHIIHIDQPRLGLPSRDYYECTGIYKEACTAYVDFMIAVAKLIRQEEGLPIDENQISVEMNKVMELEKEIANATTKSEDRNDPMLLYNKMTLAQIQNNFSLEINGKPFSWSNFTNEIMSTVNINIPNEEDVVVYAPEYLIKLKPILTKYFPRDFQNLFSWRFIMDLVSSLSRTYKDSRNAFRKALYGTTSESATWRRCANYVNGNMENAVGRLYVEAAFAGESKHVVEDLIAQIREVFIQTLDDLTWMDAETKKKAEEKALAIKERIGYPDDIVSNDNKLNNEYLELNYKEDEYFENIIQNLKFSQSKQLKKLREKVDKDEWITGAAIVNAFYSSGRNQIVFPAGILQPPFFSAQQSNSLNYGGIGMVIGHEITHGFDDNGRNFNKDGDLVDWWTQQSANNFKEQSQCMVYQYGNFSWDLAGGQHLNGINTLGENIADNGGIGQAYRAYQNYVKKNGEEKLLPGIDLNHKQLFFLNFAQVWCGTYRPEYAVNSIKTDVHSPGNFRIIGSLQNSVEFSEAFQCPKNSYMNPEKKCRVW

B1: rat Neutral EndoPeptidase 24-11 (NEP), membrane-bound, in rat tissue membrane preparations and fresh tissue slices (protein)
chain: T3 sequence (looked up)
- fold rise of the apparent Km of the enzyme for substrate (substance P), rat renal membranes [1]: raising the apparent Km of the enzyme for substrate by 2-5 fold

B2: purified rabbit renal NEP (protein)
chain: T4 sequence (looked up)
- initial velocity of substance P hydrolysis by purified rabbit renal NEP (Vi) [2]: Vi=140 pM/min/µg enzyme

Binder: QHNPR (also: Gln form interconverts with pGlu form by N-terminal cyclization) [SMR1-QHNPR (SMR1-Pentapeptide)]
- IC50 (concentration of the inhibitor reducing by half the degradation of 3H-substance P) on rat spinal cord membrane preparations [3]: ~100 nM
- IC50 of inhibition of 3H substance-P degradation by rat kidney membranes [3]: 500 to 1000 nM
- inhibitory potency (IC50) with rat spinal NEP [3]: 400 nM
- inhibitory potency (IC50) with purified rabbit renal NEP and synthetic specific fluorogenic substrate [4]: 600 nM
